Assay results taken from patent US20190048095A1 (BIO THERA SOLUTIONS, published 2019).

T1: TROP2 (TACSTD2), on TROP2 positive human tumor cell lines MDA-MB-468, A431 and N87 (human, UniProt P09758 27-323)
T1 sequence (looked up): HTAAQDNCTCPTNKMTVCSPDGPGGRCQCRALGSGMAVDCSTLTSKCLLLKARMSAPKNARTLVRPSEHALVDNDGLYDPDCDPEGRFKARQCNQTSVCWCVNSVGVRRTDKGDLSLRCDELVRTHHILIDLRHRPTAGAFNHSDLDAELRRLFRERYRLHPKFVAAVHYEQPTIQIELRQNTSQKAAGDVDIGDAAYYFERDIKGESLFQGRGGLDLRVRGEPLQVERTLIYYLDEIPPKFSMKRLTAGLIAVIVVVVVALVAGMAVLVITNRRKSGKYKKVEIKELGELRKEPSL


Assays:
[1] = target: T1, TROP2 (TACSTD2), on TROP2 positive …; assay: cell-based or functional assay
[2] = target: T1, TROP2 (TACSTD2), on TROP2 positive …; assay: cell-based or functional assay; remark: listed apart in the source

Binder | EC50, proliferation inhibition of A431 cells (CCK8, 72 h) [1] | EC50, proliferation inhibition of MDA-MB-468 cells (CCK8, 72 h) [1] | EC50, proliferation inhibition of N87 cells (CCK8, 72 h) [1] | EC50 (nM), synergistic ADCC, A431 with PBMC (PBMC cell:target cell 10:1) [2] | EC50 (nM), cell proliferation, A431 [2] | EC50 (nM), cell proliferation, MDA-MB-468 [2] | EC50 (nM), cell proliferation, N87 [2] | EC50 (nM), synergistic ADCC, A431 with PBMC (PBMC cell:target cell 5:1) [2]
Batansine-0806 (anti-TROP2 antibody BAT0806 conjugated with 3AA-MDC) (antibody, 3AA-MDC (batansine maytansinoid-linker) on cysteine thiols freed by partial TCEP reduction; positions not given) light: DIQLTQSPSSLSASVGDRVSITCKASQDVSIAVAWYQQKPGKAPKLLIYSASYRYTGVPDRFSGSGSGTDFTLTISSLQPEDFAVYYCQQHYITPLTFGAGTKVEIKRTVAAPSVFIFPPSDEQLKSGTASVVCLLNNFYPREAKVQWKVDNALQSGNSQESVTEQDSKDSTYSLSSTLTLSKADYEKHKVYACEVTHQGLSSPVTKSFNRGEC heavy: not shown | 0.53 nM | 3.21 nM | 0.34 nM | 0.006 nM | – | – | – | –
BAT0806-CL2A-SN-38 (anti-TROP2 antibody BAT0806 conjugated with CL2A-SN-38) (antibody, human IgG1, kappa, CL2A-SN-38 on cysteine thiols freed by TCEP reduction; positions not given) light: DIQLTQSPSSLSASVGDRVSITCKASQDVSIAVAWYQQKPGKAPKLLIYSASYRYTGVPDRFSGSGSGTDFTLTISSLQPEDFAVYYCQQHYITPLTFGAGTKVEIKRTVAAPSVFIFPPSDEQLKSGTASVVCLLNNFYPREAKVQWKVDNALQSGNSQESVTEQDSKDSTYSLSSTLTLSKADYEKHKVYACEVTHQGLSSPVTKSFNRGEC heavy: not shown | – | – | – | – | 1.26 nM | 1.84 nM | 1.84 nM | 0.143 nM
Batansine-0807 (anti-TROP2 antibody BAT0807 conjugated with 3AA-MDC) (antibody, human IgG1, kappa, 3AA-MDC on site-mutated (engineered) cysteine(s); position not printed for this antibody) light: DIQLTQSPSSLSASVGDRVSITCKASQDVSIAVAWYQQKPGKAPKLLIYSASYRYTGVPDRFSGSGSGTDFTLTISSLQPEDFAVYYCQQHYITPLTFGAGTKVEIKRTVAAPSVFIFPPSDEQLKSGTASVVCLLNNFYPREAKVQWKVDNALQSGNSQESVTEQDSKDSTYSLSSTLTLSKADYEKHKVYACEVTHQGLSSPVTKSFNRGEC heavy: not shown | 1.73 nM | 2.89 nM | 0.77 nM | 0.011 nM | – | – | – | –
Batansine-0808 (anti-TROP2 antibody BAT0808 conjugated with 3AA-MDC) (antibody, human IgG1, kappa, 3AA-MDC on site-mutated (engineered) cysteine(s); position not printed for this antibody; glycan with fucose content of 0-5%) light: DIQLTQSPSSLSASVGDRVSITCKASQDVSIAVAWYQQKPGKAPKLLIYSASYRYTGVPDRFSGSGSGTDFTLTISSLQPEDFAVYYCQQHYITPLTFGAGTKVEIKRTVAAPSVFIFPPSDEQLKSGTASVVCLLNNFYPREAKVQWKVDNALQSGNSQESVTEQDSKDSTYSLSSTLTLSKADYEKHKVYACEVTHQGLSSPVTKSFNRGEC heavy: not shown | 1.53 nM | 5.61 nM | 1.47 nM | 0.001 nM | 2.89 nM | 1.95 nM | 0.56 nM | –
